Experimental data taken from publication PMC6270503.
Read-outs that look alike come from different tables or passages of the source.

What was measured:
Assay in all cases: SPR; ProteON XPR36, GLC chip; BMP-2 immobilised by amine coupling (1000-2000 RU), CV2 VWC1 proteins as analytes in six concentrations; 25 °C, HBST500 (10 mM HEPES pH 7.4, 500 mM NaCl, 0.005% Tween20); global Langmuir 1:1 fit, KD = koff/kon, or from dose-dependency of equilibrium binding for weak or fast binders; apparent KD
[1] = target: E. coli derived recombinant human BMP-2 (human) (UniProt P12643)
E. coli derived recombinant human BMP-2 (human), sequence (P12643 283-396): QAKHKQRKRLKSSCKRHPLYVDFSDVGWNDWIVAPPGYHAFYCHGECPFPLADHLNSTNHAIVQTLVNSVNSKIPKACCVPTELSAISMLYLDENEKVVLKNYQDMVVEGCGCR

[2] = target: E. coli derived recombinant human BMP-2 (human) (UniProt P12643); remark: listed apart in the source
[3] = target: E. coli derived recombinant human BMP-2 (human) (UniProt P12643); remark: listed apart in the source

CV2 VWC1 E6P (domain or fragment)
Kd [1]: 0.012 µM
koff [1]: 0.0073 s⁻¹
kon [1]: 630000 M⁻¹ s⁻¹

CV2 VWC1 E10A (domain or fragment)
Kd [1]: 0.013 µM
koff [1]: 0.0095 s⁻¹
kon [1]: 750000 M⁻¹ s⁻¹

CV2 VWC1 G4A (domain or fragment)
koff [2]: 0.06 s⁻¹
Kd [1]: 0.239 µM
koff [1]: > 0.05 s⁻¹

CV2 VWC1 InsA10 (domain or fragment)
Kd [1]: 0.013 µM
koff [1]: 0.0012 s⁻¹
kon [1]: 910000 M⁻¹ s⁻¹

VWC1 domain (von Willebrand type C domain 1) of Danio rerio Crossveinless 2, wildtype (domain or fragment)
Kd [1]: 0.013 µM
koff [1]: 0.0087 s⁻¹
kon [1]: 650000 M⁻¹ s⁻¹
Kd [3]: 0.014 µM
